B1: Fab of mAb 6-6 (Fab, V domains shown)
VH: QVQLQVSGPGVVKPSETLSLTCSVSGDSFRRAYFFWSWVRQPPGKGLEWMGGIYTNSESTTYNPSLESRISVSKDASKNQFSLRLTSVTAADTAVYYCTSRAEVYFSGGYYSGGRIDVWGPGVLVTVSS
VL: DIQMTQSPSSLSASVGDRVTVTCRASQDINKDLSWFQQKPGEAPTLLIFTASTLQTGVSSRFSGSGSGTSFSLTISSLQPEDVATYFCQQDHSFPLTFGGGTRVDLQ
B2: Fab of mAb 15-3 (Fab, V domains shown)
VH: QVQLQESGPGVVKPSETLSLSCGVSSASILGGYFFWSWIRQSPGKGLEWMGGVYTNSDTTNYNPSLKSRVAISKDTSVNQFSLRLTSVTAADTAVYYCTARATVHSSASYYYGGRIDVWGPGLLVTVSS
VL: DIQMTQSPSSLSASLGDRVTVTCRASQGINRDLSWFQQKPGKAPTLLIYEVSNLQTGVSSRFSGSGSGTDFTLTISSLQPEDVATYYCQQDYDFPLTFGGGTKVDLK
B3: Fab of mAb 7-2 (Fab, V domains shown)
VH: QVQLQASGPGVVKPSETLSLTCAVSGDYVRRGYFYWSWVRQSPGKGLEWIGGIYSNSDTTNYNPSLKSRLTISKDTSNNQFFLTLSSVTAADTAVYYCTSRAKIYSSGSYYAGGRIDVWGPGVQVIVSS
VL: B2 VL with I2V, Q3H, R18S, R31K, K42E, E50D, V51A, N53T, S77N

Positions count from the first letter of the chain named.

For the assay, the target named is HIV-1 BG505.DS.SOSIP.S613A Env trimer (HIV-1 (strain BG505)). Nature of the assay: BLI; Trimer-Fab method, Octet RED384, 25 °C, 1% BSA in PBS: trimer (100 nM) held by RM19R-human Fc IgG on anti-human Fc capture tips; Fab as analyte in serial dilutions; global fit to a 1:1 Langmuir model. A general note: Biolayer interferometry detects binding as a change in optical thickness at a sensor tip.
What is called Kd is a measure of binding affinity in units of concentration. As a reminder, the koff is a measure of how fast the partners let go of each other. High values mean fast dissociation, low ones slow dissociation. The kon is a measure of how fast the partners come together. Lower therefore signals slow association. Turning to B1, the Kd amounted to 17 nM, the koff is 0.00304 s⁻¹ and the kon amounted to 179000 M⁻¹ s⁻¹.

B2 registered a Kd of 0.104 nM, a koff of 7.98e-06 s⁻¹ and a kon of 76500 M⁻¹ s⁻¹.

In turn, B3 displayed a Kd of 0.774 nM, a koff of 0.000109 s⁻¹ and a kon of 141000 M⁻¹ s⁻¹.
